Experimental data reported in PMC5537299, “Spatial structure of TLR4 transmembrane domain in bicelles provides the insight into the receptor activation mechanism” (Scientific Reports, 2017).
Several values for one entry are separate records, joined by “and”; a condition that tells them apart may be missing. Equal values may be shown once. One block for each molecule: values may come before it.

What was measured:
[1] = target: TLR4-TMICL (transmembrane domain and whole intracellular linker region of human TLR4, residues 624-670) (human); experiment: NMR titration; 1H,15N-TROSY spectra at various lipid(detergent)-to-protein ratios (LPR) in DPC micelles; populations of the states from cross-peak intensities; 45 °C; 20 mM phosphate buffer pH 6.0-6.5; monomer, dimer and higher oligomer
[2] = target: His657 (UniProt position 657, …); experiment: NMR; settings: 45 °C (Methods: all NMR experiments), supplementary figure captions for the same samples state 40 °C, not stated (20 mM phosphate, no added salt mentioned), Monomeric, helical, membrane-mimetic-embedded TLR4-TMICL in anionic bicelles
[3] = target: the molecule itself; experiment: NMR titration; 1H,15N-TROSY spectra at various lipid(detergent)-to-protein ratios (LPR) in DPC micelles; populations of the states from cross-peak intensities; 45 °C; 20 mM phosphate buffer pH 6.0-6.5; monomer, dimer and higher oligomer

stoichiometry N [1]: 2 and 3
Molecule: TLR4-TMICL (transmembrane domain and whole intracellular linker region of human TLR4, residues 624-670) (domain or fragment)

Molecule: MNITSQMNKTIIGVSVLSVLVVSVVAVLVYKFYFHLLMLAGCIKYGRG
pKa [2]: 6.16 ± 0.02

B1: TLR4-TM (transmembrane domain of human TLR4 with the truncated ICL region, residues 624-657) (domain or fragment)
chain: MNITSQMNKTIIGVSVLSVLVVSVVAVLVYKFYFH
notes: not part of the stated range 624-657; human TLR4, predicted (UniProt) transmembrane and several juxtamembrane residues 624-657; 35 residues as printed; uniformly 13C/15N-labelled for NMR; cloned into pET22b by NdeI and HindIII; also called TLR-TM; source: continuous exchange cell-free expression (S30 extract of E. coli Rosetta(DE3)pLysS), as a precipitate; purified by size-exclusion …
stoichiometry N [3]: 2 and 3
